Data taken from US20090246756A1, “Thermostable polypeptide having polynucleotide kinase activity and/or phosphatase activity” (Prokaria Ehe, priority 2004, published 2009).
“And” between values parts separate entries of the source, which are not always exact repeats. Equal values may be shown once. “Also recorded” adds a separate entry of the source.

Key:
d(A20) = experiment: 5′ kinase reaction, ssDNA oligomer titration and labelling; type: biochemical
Protocol: (§1) The standard PNK assay developed by Richardsson (Richardson, C. C. (1965) Proc Natl Acad Sci USA 54, 158-165) that measures conversion of γ-32P-ATP, was used for characterization of the RM378 PNK with some minor modifications. Standard reaction conditions were: 50 mM MOPS buffer pH 8.5, 1 mM DTT, 10 mM MgCl2, 25 μg/ml BSA, 1 mM spermidine and 5% PEG6000, 100 μM ATP (mixture of normal and γ-32P-ATP) and 0.5 mg/ml partial mircococcal nuclease digested calf thymus DNA or 50-100 μM DNA/RNA oligomers, and 0.0001-0.001 mg/ml PNK enzyme, incubated at 70° C. for 15-30 minutes.
(§2) Titration curves for ATP, r(A20) and single stranded d(A20) oligomers were done to calculate Km values and find the maximum velocity of the 5′ kinase reaction. The results are shown for ATP in FIG. 4B and for, r(A20) and d(A20) in FIGS. 4C.
(§3) To investigate the completeness of the 5′ kinase reaction, both r(A20) and d(A20) oligos at 20 μM concentration were labeled in a 10 μM ^32P labeled ATP mixture under optimal conditions. […] The RM378 PNK is therefore an excellent enzyme for nucleic acid labeling at elevated temperatures.

[1] = 3′ phosphohydrolase assay (phosphate release, Biomol Green) on CAMP; conditions: for 3′ phosphohydrolase activity on CAMP, enzyme comparison: 20 units enzyme, pH 6, 2 hours, 37° C. (T4) / 70° C. (RM378)
Protocol: (§4) For example, the following assay can be used: in a potassium acetate buffer, pH 6.0, with 5 mM MnCl2, 1 mM DTT, and 10 mM KCl2, the enzyme is incubated (at 0.05 mg enzyme/ml) with substrate, such as 0.1-5 mM 3′-thymidine mono-phosphate (3′-TMP) or cyclic 2′-3′cyclic adenosine mono-phosphate (cAMP), for 30-60 minutes at suitable temperature, for example at 70-75° C. for RM378 kinase. The reaction is then quenched by adding 90 μL of Biomol Green reagent (Biomol Research Laboratories, Plymouth Meeting, Pa.) to 10 μL reaction. The release of phosphate is then measured at A 620 nm in a spectrophotometer and compared to a phosphate standard curve.
(§5) After determination of pH, cation and apparent temperature optimum, the standard phosphohydrolase assay was: Potassium acetate buffer pH 6.0, 5 mM MnCl2, 1 mM DTT, 10 mM KCl2, 0.1-5 mM CAMP and 0.05 mg/ml PNK. Reaction time was 30-60 minutes at 70-75° C. The reaction was quenched by adding 90 μL of Biomol Green reagent (Biomol Research Laboratories, Plymouth Meeting, Pa.) to 10 μL reaction. The release of phosphate was measured at A 620 nm in a Sunrise Absorbance Reader (Tecan Group Ltd, Maennedorf, Switzerland) and compare to a phosphate standard curve.
(§6) The characterization of the phosphohydrolase activity was done using two substrates: 3′-thymidine mono-phosphate (3′TMP) and cyclic 2′-3′cyclic adenosine mono-phosphate (cAMP). Determination of pH optimum was done with MOPS and potassium acetate buffers using 0.1 mM CAMP and 0.05 mg/ml PNK, apparent T optimum was also done under the standard condition by assaying at different temperatures. Protein concentration curve was done with CAMP at pH 6 in K-acetate buffer and different amount of PNK. Substrate concentration curves were done for CAMP and 3′TMP, under the standard conditions using different amount of substrates.
(§7) Comparison was done between RM378 and T4 PNK using CAMP, 3′TMP and d(A15)—PO4^− oligomer as substrates, all in 0.1 mM concentration with 20 units of the enzymes in 20 μL reaction volumes using potassium acetate buffer pH 6 with both Mg^2+ and Mn^2+ as the divalent cation. The reactions were carried out for 2 hours at 37° C. and 70° C. for T4 and RM378 PNK, respectively.

[2] = tested on: partial mircococcal nuclease digested calf thymus DNA or DNA/RNA oligomers; experiment: 5′ kinase standard PNK assay (conversion of γ-32P-ATP); type: biochemical; conditions: standard assay at different temperatures for one hour
[3] = tested on: partial mircococcal nuclease digested calf thymus DNA or DNA/RNA oligomers; experiment: as above; type: biochemical; conditions: for increase in 5′ kinase activity by PEG6000: 5-10% PEG6000; for 5′ kinase activity with Mn^2+ compared to Mg^2+: divalent cation essential
Protocol: The 5′-kinase activity may be determined by an appropriate assay such as an assay developed for T4 PNK that measures conversion of ATP labelled with radioactive gamma-phosphate group (Richardson, C. C. (1965) Proc Natl Acad Sci U.S.A. 54, 158-165). The standard assay may be modified according to the requirement of a specific PNK. For example, for RM378 PNK the typical reaction conditions are 50 mM MOPS buffer pH 8.5, 1 mM DTT, 10 mM MgCl2, 25 μg/ml BSA, 1 mM spermidine and 5% PEG6000, 100 μM ATP (mixture of normal and γ-32P-ATP) and 0.5 mg/ml partial micrococcal nuclease digested calf thymus DNA or 50-100 μM DNA/RNA oligomers, and 0.0001-0.001 mg/ml PNK enzyme. The reaction mixture is then incubated at 70° C. for 15-30 minutes.
as §1

ssDNA oligomer = experiment: Effect of ADP on 5′ kinase, dephosphorylation and phosphate exchange reactions; type: biochemical; conditions: for effect of ADP on 5′ kinase activity: 5′ hydroxylated ssDNA, increasing ADP; for phosphate exchange reaction on 5′ phosphorylated oligomer: independent of ADP concentration, 0 to 1 mM ADP; for effect of ADP on dephosphorylation of 5′ phosphorylated ssDNA: only ADP and 32P-labeled oligomer, no ATP
Protocol: Effect of ADP was tested on three kind of reactions i) exchange reaction ii) 5′ kinase reaction and iii) dephosphosphorylation. This was done, by titrating different amounts of ADP to reaction mixtures containing i) 10 μM phosphorylated ssDNA oligo 10 μM γ-^32P-ATP, ii) 10 μM 5′ hydroxylated ssDNA oligomer with 10 μM γ-^32P-ATP, and iii) with 5′ ^32P-labeled ssDNA oligomer without ATP.
The effect of addition of ADP to 5′ kinase activity, dephosphorylation, and phosphate exchange was studied in controlled assay with 10:10 μM ATP and oligomer and by titrating the ADP concentration. […] On the other hand, when labelling an already phosphorylated oligomer, the exchange reaction was overall about 5-8% independent of the ADP concentration, from 0 to 1 mM ADP.

d(A15)—PO4^− oligomer = experiment: 3′ phosphohydrolase comparison of RM378 and T4 PNK on 3′ phosphorylated oligomer; type: biochemical; conditions: 0.1 mM substrate, 20 units enzyme, pH 6, 2 hours, 37° C. (T4) / 70° C. (RM378)
Protocol: as §7

[4] = 3′ phosphohydrolase assay (phosphate release, Biomol Green) on 3′TMP; type: biochemical
Protocol: as §4, §5, §6
Comparison was done between RM378 and T4 PNK using CAMP, 3′TMP and d(A15)—PO4^− oligomer as substrates, all in 0.1 mM concentration with 20 units of the enzymes in 20 μL reaction volumes using potassium acetate buffer pH 6 with both Mg^2+ and Mn^2+ as the divalent cation. […]

r(A20) = experiment: 5′ kinase reaction, RNA oligomer titration and labelling; type: biochemical
Protocol: as §1, §2, §3

[5] = 5′ kinase reaction, ATP titration; type: biochemical; conditions: Lineweaver-Burk plot
Protocol: as §1, §2

B1: RM378 PNK: novel thermostable polynucleotide kinase (5′-kinase and 3′-phosphatase activity) from the thermophilic bacteriophage RM378, SEQ ID NO: 2 (protein)
chain: MPNFITNIRNSRFKEVLTEMYHCHHESEYHLEGNVLNHTLMVLQVVDKITADHREQTNLSLTALLHDSGKPYTRVVERGRVMFPGHEGVSTYIAPLLLCEVLRDSLITPKDAIQILYGVNYHMLHWKNPNLFMRLFTEMVNYTCLYNFLKKFNQCDLKGRVSTKPQKQEFPVIHYFENTPIGTVERHVYFMIGVPGSGKSTFLQKVGEGAIVSRDEIMMEYAAEIGITGDYNTVFREIHNNPMHKTKVNNRYMNAFRKAVEENEKVFVDATNMSYKSRRRFYNALRRDIAETVGYHYIVMLPDYFTCIERAENREGKSISREVVTDIARSLLLPCREHPNSIDTTIYMSDGHDEHVLRVAW
modifications: Bacteriophage RM378; HDmotif (66)..(67) HD motif is characteristic of HD phophohydrolase family of enzymes
For B1, the “completeness of 5′ kinase labelling reaction, DNA” value (d(A20); 20 μM d(A20), 10 μM 32P-labeled ATP, 70° C., 30 min) was “the ATP was depleted; also recorded: completely depleted the ATP when using 5 U per reaction”, the “Vmax of 5′ kinase reaction on d(A20)” value (d(A20); Example 2) was 220 μmolmg^−1h^−1 and the “Vmax of 5′ kinase activity on DNA” value (d(A20); FIG. 6C legend) was 160 µmol/h/mg. The “5′ kinase activity on ssDNA compared to RNA” value (d(A20); d(A20) versus r(A20)) was “somewhat better activity on ssDNA when compared to RNA”, the Km (d(A20); single stranded d(A20), read-out: Km for DNA, 5′ kinase reaction) was ~1.3 µM and 1.5 µM and the “pH range with >40% 3′ phosphohydrolase activity” value [1] was 5.5-7.0 pH. The “temperature range with good (>50%) 3′ phosphohydrolase activity” value [1] was 65-80 °C, the “3′ phosphohydrolase activity on CAMP, enzyme comparison” value ([1]; 0.1 mM substrate) was “much better activity on the CAMP versus 3′-TMP” and the “3′ phosphohydrolase activity on CAMP, enzyme comparison” value ([1]; 0.1 mM substrate, listed as RM378) was “high activity on CAMP”. The “higher 3′ phosphohydrolase activity with Mn^2+ than Mg^2+” value ([1]; CAMP as substrate, 1 mM cation) was 5-10 fold, the “3′ phosphohydrolase activity in presence of Mg2+, enzyme comparison” value ([1]; Mg2+ as cation, 0.1 mM substrate) was “little activity in presence of Mg2+” and the “apparent temperature optimum of 3′ phosphohydrolase activity” value ([1]; measured for one hour) was 75 °C. The “pH optimum of 3′ phosphohydrolase activity” value ([1]; potassium acetate pH 4-6 and MOPS pH 6-9, 0.1 mM CAMP, 0.05 mg/ml PNK) was about 6 pH, the Km ([1]; read-out: Km for CAMP, 3′ phosphohydrolase reaction, standard conditions, Mn2+) was 700 µM and the “Vmax of 3′ phosphohydrolase reaction on CAMP” value ([1]; standard conditions, Mn2+) was 13.5 μmolmg^−1h^−1. For the same molecule, the “3′ phosphohydrolase activity on CAMP relative to 3′TMP” value ([1]; substrate titration, standard assay conditions with Mn2+) was “much more phosphohydrolase activity on CAMP compared to 3′TMP; also recorded: several-fold higher on CAMP than 3′TMP”, the “apparent temperature optimum of 5′ kinase activity” value [2] was 65-70 °C and the “effect of spermidine on 5′ kinase activity” value [3] was “limited”. The “increase in 5′ kinase activity by PEG6000” value [3] was “multi-fold”, the “increase in 5′ kinase activity by PEG6000” value ([3]; listed as PNK) was 3-4 fold and 4 fold and the “Mg^2+ concentration at which maximum 5′ kinase activity was reached” value ([3]; Mg^2+) was 100 µM. For the same molecule, the “Mn^2+ concentration at which maximum 5′ kinase activity was reached” value ([3]; Mn^2+) was 10 µM, the “effect of Mn^2+ concentration over 100 μM on 5′ kinase reaction” value ([3]; Mn^2+ over 100 μM) was “severely inhibited the reaction” and the “effect of PEG6000 at higher concentrations on 5′ kinase reaction” value ([3]; PEG6000 above 5-10%) was “inhibited the 5′ kinase reaction at higher concentrations”. The “effect of NaCl and KCl on PNK activity” value ([3]; concentrations higher than 10 mM) was “steady decrease in activity”, the “5′ kinase activity with Mn^2+ compared to Mg^2+” value [3] was “both Mg2+ and Mn2+ work equally well” and the “5′ kinase activity with Mn^2+ compared to Mg^2+” value ([3]; listed as PNK) was “Activity was similar for Mn^2+ and Mg^2+”. For the same molecule, the “effect of ADP on 5′ kinase activity” value (ssDNA oligomer) was “inhibited as the concentration of ADP increased”, the “effect of ADP on 5′ kinase activity” value (ssDNA oligomer; listed as PNK) was “decreased with increasing ADP concentration” and the “ADP concentration giving complete inhibition of 5′ kinase activity” value (ssDNA oligomer; 10:10 μM ATP and oligomer) was 50 µM. The “phosphate exchange reaction on 5′ phosphorylated oligomer” value (ssDNA oligomer) was 3-8%, the “phosphate exchange reaction on 5′ phosphorylated oligomer” value (ssDNA oligomer; listed as PNK) was 5-8% and the “effect of ADP on dephosphorylation of 5′ phosphorylated ssDNA” value (ssDNA oligomer) was “The dephosphorylation increased as the ADP concentration increased”. The “effect of ADP on dephosphorylation of 5′ phosphorylated ssDNA” value (ssDNA oligomer; listed as PNK) was “the level of dephosphorylation increased as the ADP concentration was increased”, the “3′ phosphohydrolase activity on d(A15)-3′PO4− oligomer, enzyme comparison” value (d(A15)—PO4^− oligomer) was “no detectable activity on the oligomer” and the “3′ phosphohydrolase activity on d(A15)-3′PO4− oligomer, enzyme comparison” value (d(A15)—PO4^− oligomer; listed as RM378) was “no activity on the oligomer”. The “3′ phosphohydrolase activity on 3′TMP, enzyme comparison” value ([4]; 0.1 mM substrate, 20 units enzyme, pH 6, 2 hours, 37° C. (T4) / 70° C. (RM378)) was “some activity on 3′TMP”, the “Vmax of 3′ phosphohydrolase reaction on 3′TMP” value ([4]; standard conditions, Mn2+) was 1.5 μmolmg^−1h^−1 and the Km ([4]; standard conditions, Mn2+, read-out: Km for 3TMP, 3′ phosphohydrolase reaction) was 60 µM. The “completeness of 5′ kinase labelling reaction, RNA” value (r(A20); 20 μM r(A20), 10 μM 32P-labeled ATP, 70° C., 30 min) was “the ATP was depleted; also recorded: completely depleted the ATP when using 5 U per reaction”, the “Vmax of 5′ kinase reaction on r(A20)” value (r(A20); Example 2) was 160 μmolmg^−1h^−1 and the “Vmax of 5′ kinase activity on RNA” value (r(A20); FIG. 6C legend) was 220 µmol/h/mg. The Km (r(A20); r(A20)) was ~1.5 µM and 1.3 µM and the Km [5] was 20 µM.
